From patent US20250042994A1 (HAINAN SIMCERE ZAIMING PHARMACEUTICAL, published 2025)
Positions count from the first letter of the chain named.

Assays:
Human CD19-his protein = biological target: T1, Human CD19-his protein (human, UniProt P15391 20-291); experiment: SPR Biacore, Ab captured on Protein A, CD19-His analyte
T1 construct: bought protein; also called recombinant human CD19-His; CD19 full-length protein; not shown: His tag
T1 sequence (looked up): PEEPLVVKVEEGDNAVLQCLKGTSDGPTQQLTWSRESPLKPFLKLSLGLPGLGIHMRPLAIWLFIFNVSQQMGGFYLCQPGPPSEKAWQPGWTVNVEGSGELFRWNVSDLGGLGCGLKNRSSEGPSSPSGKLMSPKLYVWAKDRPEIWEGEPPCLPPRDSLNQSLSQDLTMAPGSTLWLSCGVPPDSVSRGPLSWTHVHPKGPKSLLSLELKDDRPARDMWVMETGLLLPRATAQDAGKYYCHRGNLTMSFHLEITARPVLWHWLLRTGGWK
How it was run: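 Antibodies were captured on a Protein A chip at 25 °C in HBS-EP+. Human CD19-His was injected for 240 s at 30 μl/min at 5 concentrations from 200 nM (1:1 dilutions), with dissociation up to 600 s. Data were double-referenced and fitted to a Langmuir 1:1 model for apparent KD.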

[1] = biological target: T2, human CD19 exon1-3-His tag protein (human, UniProt P15391 20-186, limits assumed); experiment: ELISA on coated human CD19 exon 1-3-His
T2 construct: membrane-distal part of the extracellular region, made in HEK293E cells; not shown: His tag
T2 sequence (looked up): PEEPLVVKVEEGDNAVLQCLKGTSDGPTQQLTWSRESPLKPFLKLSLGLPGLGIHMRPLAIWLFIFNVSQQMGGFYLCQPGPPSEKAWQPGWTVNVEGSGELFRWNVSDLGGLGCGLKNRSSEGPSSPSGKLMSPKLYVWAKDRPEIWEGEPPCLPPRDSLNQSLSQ
Method: Human CD19-his protein (purchased from ACROBiosystems, catalog number: CD9-H52H2) was diluted with PBS to a final concentration of 4 μg/mL, and then added to a 96-well ELISA plate at 100 μl/well. The plate was sealed with a plastic film and incubated overnight at 4° C., the plate was washed 2 times with PBS the next day, and then a blocking solution [PBS+2% (w/w) BSA] was added for blocking at room temperature for 2 h. The blocking solution was poured off, and 100 nM gradiently diluted CD19 chimeric antibody or control antibody was added at 50 μl/well. After incubation at 37° C. for 2 h, the plate was washed 3 times with PBS. […] TMB substrate was added at 50 μl/well, and incubated at room temperature for 10 min, and then a stop solution (1.0 N HCl) was added at 50 μl/well. The OD450 nm values were read by an ELISA microplate reader (Multimode Plate Reader, EnSight, purchased from Perkin Elmer).
CD19 protein contains 4 exons in the extracellular region, in which exons 1-3 are located at the membrane-distal end and exon 4 is located at the membrane-proximal end. […] To identify the distribution of antigen binding epitopes of the chimeric antibodies, human CD19 exon 1-3-His (membrane-distal end) was used to coat at 2 μg/mL according to the ELISA method in example 5.1.

B1: F3.40.14 (antibody, human IgG1, V domains shown)
VH: QAQLQQSGPELVKPGASVKISCKASGYAFSGSWMNWVQQRPGKGLEWIGRIYPGDGDTYYSGKFKDKAILTADTSSSTAYMQLSSLTSEDSAVYFCAQLRSRYVMDYWGQGASVTVSS
VL: DIVLTQSPASLAVSLGQRATISCRASESVSIHGTHLMHWYQQKPGQPPRLLIYAASNLESGVPARFSGSGSETDFTLNIHPVEEEDAATYFCQQGIDDPYTFGGGTKLEIK
notes: human-murine chimeric antibody, human IgG1 constant
Kd (Human CD19-his protein): 1.7 nM | koff (Human CD19-his protein): 0.000143 s⁻¹ | kon (Human CD19-his protein): 84300 M⁻¹ s⁻¹ | binding result [1]: no binding (tested: 100 nM)

B2: F3.13.2 (antibody, human IgG1, V domains shown)
VH: DVQLQESGPGLMKPSQSLSLTCSVTGYSITSGYYWNWIRQFPGNKLEWMGYISYDGSNNYNPSLKNRFSITRDTSKNQFFLKLNSVTTEDTATYYCARRKLTGGPYFDYWGQGTTLTVSS
VL: DIVLTQSPASLAVTLGQRATISCRASESVSFHGFHIMHWYQQKPGQPPKLLIYAASHLVSGVPDRFSGSGSETDFTLNIHPVEEEDAAAYFCQQSVEDPWTFGGGTKLEIK
notes: as for B1
Kd (Human CD19-his protein): 8.13 nM | koff (Human CD19-his protein): 0.000526 s⁻¹ | kon (Human CD19-his protein): 64700 M⁻¹ s⁻¹ | binding result [1]: no binding (tested: 100 nM)

B3: F3.64.4 (antibody, human IgG1, V domains shown)
VH: EVQLQQSGPELVKPGASVKISCKASGYTFTDYHINWVKQSHGKSPEWIGDINPNNGGTTYNQKFKDKATLTVDKSSSTAFMELRSLTSEDSAVYYCARFITTVVAWYFDVWGTGTTVTVSS
VL: DIQMTQSPASLSVSVGETVTITCRASENIYSNLAWYQQKQGKSPQLLVYAATNLADGVPSRFSGSGSGTQYSLKINSLQSEDFGNYYCQRFWDTPRTFGGGTKLEIK
notes: as for B1
Kd (Human CD19-his protein): 1.64 nM | koff (Human CD19-his protein): 0.000313 s⁻¹ | kon (Human CD19-his protein): 191000 M⁻¹ s⁻¹ | binding result [1]: no binding (tested: 100 nM)

B4: F3.81.2 (antibody, human IgG1, V domains shown)
VH: QVQLQQPGAELVMPGASVKLSCKASAYTFTNYWMHWVKQRPGHGLEWIGEIDPSDSYTDYNQNFKAKATLTVDKSSSTAYMQLSSLTSEDSAVYYCARLMGRYFDVWGTGTTVTVSS
VL: DIVMTQSHKFMSTSVGDRVSITCKASQDVSAAVAWYQQKPGQSPKLLINSASYRYTGVPDRFTGSGSGTDFTFTISSVQAEDLAVYYCQQHYSTPLTFGAGTKLELR
notes: as for B1
Kd (Human CD19-his protein): 0.766 nM | koff (Human CD19-his protein): 0.000104 s⁻¹ | kon (Human CD19-his protein): 135000 M⁻¹ s⁻¹ | binding result [1]: no binding (tested: 100 nM)

B5: F3.83.9 (antibody, human IgG1, V domains shown)
VH: DVQLQESGPGLVKPSQSLSLTCSVTGYSITSGYYWNWIRQFPGNKLEWMGYISYDGGNNYNPSLKNRISITRDTSKNQFFLKLNSVTTEDTATYFCAREDYSNWYFDVWGTGTTVTVSS
VL: DIVLTQSPASLAVSLGQRATISCRASQSVSKSSYSYMHWYQQKPGQSPKLLIKYASILKSGVPARFSGSGSGTDFTLNIHPVEEEDTATYYCQHSWEIPWTFGGGTKLEIK
notes: as for B1
Kd (Human CD19-his protein): 3.67 nM | koff (Human CD19-his protein): 0.000312 s⁻¹ | kon (Human CD19-his protein): 85100 M⁻¹ s⁻¹ | binding result [1]: no binding (tested: 100 nM)

B6: F3.113.16 (antibody, human IgG1, V domains shown)
VH: QVQLQQPGAELVKPGASVKLSCKASGYTFTNYWMQWVKQRPGQGLEWIGEIDPSDSYINYNQKFKGKATLTADTSSSTAYMQLSSLTYEDSAVYYCARPVTVPWYFDVWGTGTTVTVSS
VL: EIVLTQSPTTMAASPGEKITITCSATSSISSNYLHWYQQKPGFSPKLLIYRTSNLASGVPARFSGSGSGTSYSLTIGTMEAEDVATYYCQQGSAIPRIFTFGSGTKLEIK
notes: as for B1
Kd (Human CD19-his protein): 12.4 nM | koff (Human CD19-his protein): 0.00105 s⁻¹ | kon (Human CD19-his protein): 84800 M⁻¹ s⁻¹ | binding result [1]: no binding (tested: 100 nM)

B7: F4.96.6 (antibody, human IgG1, V domains shown)
VH: EIQLQQSGPELVKPGASVKVSCKASGYAFSAYNIYWVKQSHGKSLEWIGYIDPYNSGTTYNQKFRGKATLTVDKSSNTAYMHLSSLTSEDSAVYYCTRDGDAMDYWGQGTSVTVSS
VL: EILLTQSPAIIAASPGEKVTITCSASSGVIYMNWYQQKPGSSPKIWIYDVSTLASGVPARFSGSGSGTSFSFTINSMEAEDVATYYCQQRSSYPYTFGGGTKLEIK
notes: as for B1
Kd (Human CD19-his protein): 3.71 nM | koff (Human CD19-his protein): 0.000918 s⁻¹ | kon (Human CD19-his protein): 247000 M⁻¹ s⁻¹ | binding result [1]: no binding (tested: 100 nM)

B8: F4.107.12 (antibody, human IgG1, V domains shown)
VH: EVQLQQSGPELVKPGASVKMSCKASGYTFTSYVLHWVRQKPGQGLEWIGYFNPYNDGTEYNEKFKGKAILTSDKSSSTAYMELNSLTSEDSAVYYCVGGTYYYGSSYPFAYWGQGTLVTVST
VL: DVVMTQISLSLPVSLGDQASISCRSSQSLIHSNGNTYLQWYLQKPGQSPKLLIYKVSNRLSGVPDRFSGSGSGTDFTLKISRVEAEDLGVYFCSQSTHVPYTFGGGTKLEIK
notes: as for B1
Kd (Human CD19-his protein): 1.09 nM | koff (Human CD19-his protein): 0.000217 s⁻¹ | kon (Human CD19-his protein): 200000 M⁻¹ s⁻¹ | binding result [1]: no binding (tested: 100 nM)

B9: F4.125.12 (antibody, human IgG1, V domains shown)
VH: EVKLVESGGGLVQPGGSLKLSCAASGFTFSTYTMSWVRQTPEKRLEWVAFISSGGGHINYPDTVKGRFTISRDNAKNTLYLQMSSLKSEDTAMYYCARHSYWFFDVWGAGTTVTVSS
VL: DVQITQSPSYLAASPGETITINCRASKNIDTYLAWYQEKPGKTNKLLIYSGSTLQSGIPSRFRGGGSGTDFTLTICSLEPEDFAMYYCQQHNEYPLTFGAGTKLELK
notes: as for B1
Kd (Human CD19-his protein): 0.734 nM | koff (Human CD19-his protein): 0.000204 s⁻¹ | kon (Human CD19-his protein): 278000 M⁻¹ s⁻¹ | binding result [1]: no binding (tested: 100 nM)

B10: F4.145.9 (antibody, human IgG1, V domains shown)
VH: EVQLVESGGGLVKPGGSLKLSCAAAGFAFSSYDMSWVRQIPEKRLEWVAYISAGGGNTYFLDTVKGRFTISRDHAKNTLSLQMSSLKSEDTAMYFCVRHGDYYRYFYAMDYWGQGSSVTVSS
VL: DIVMTQSHKFMSTSVGDRVSITCKASQDVGTAVAWSQQKPGQSPKLLIYWASTRHTGVPDRFTGSGSGTDFTLTISNVQSEDLADYFCQQFVTYPYTFGGGTKLEIK
notes: as for B1
Kd (Human CD19-his protein): 3.68 nM | koff (Human CD19-his protein): 0.000591 s⁻¹ | kon (Human CD19-his protein): 161000 M⁻¹ s⁻¹ | binding result [1]: no binding (tested: 100 nM)

B11: F3.126.15 (antibody, human IgG1, V domains shown)
VH: QVQLQQPGAELVMPGASVKLSCKASGYTFTSYWMHWVKQRPGQGLEWIGEIDPSDSYTTYNQNFKGKATLTVDISTSTAYIQLSNLTSEDSAVYYCARLTGNYIHYWGQGTTLTVSS
VL: B4 VL with A31P, K39R, S43C, N49F, A51S, Y55S, T94L, R107K
notes: as for B1
Kd (Human CD19-his protein): 13 nM | koff (Human CD19-his protein): 0.000799 s⁻¹ | kon (Human CD19-his protein): 61300 M⁻¹ s⁻¹ | binding result [1]: no binding (tested: 100 nM)

B12: F4.152.7 (antibody, human IgG1, V domains shown)
VH: QVQLQQPGAELVKPGASVKLSCKASGYTFTSYWMHWVKQRPGQGLEWIGEIDPSDSYTNYNQKFKGKATLTADKSSSTAYMQLSGLTSEDSAVYHCARGGDYDGYYVMDYWGQGTSVTVSS
VL: B6 VL with T26S, E82D, A94Y
notes: as for B1
Kd (Human CD19-his protein): 0.337 nM | koff (Human CD19-his protein): 8.9e-05 s⁻¹ | kon (Human CD19-his protein): 264000 M⁻¹ s⁻¹ | binding result [1]: no binding (tested: 100 nM)

B13: F4.180.1 (antibody, human IgG1, V domains shown)
VH: EVQLQQSAPELVKPGASVKMSCKTSGYTFTENIIHWVKQTHGKSLEWIGGINPDNGGTSYHQKFKGRTTLTIDKSSSTAYMELRSLTSDDSAVFFCARQAPLYWYFDIWGAGTTVTVSS
VL: DIVLTQSPASLAVSLGQRATISCRASESVDSYGNSLMHWFQQKPGQPPRLLIYRASNLESGIPARFSGSGSRTDFTLTITPVEADDVATYYCQQSNEDPWTFGGGTKLEIK
notes: as for B1
Kd (Human CD19-his protein): 0.359 nM | koff (Human CD19-his protein): 8.52e-05 s⁻¹ | kon (Human CD19-his protein): 237000 M⁻¹ s⁻¹ | binding result [1]: no binding (tested: 100 nM)

B14: F4.191.1 (antibody, human IgG1, V domains shown)
VH: QVQLQQPGAELVRPGASVKLSCKASGYTFTSYWINWVKQRPGQGLEWIGNIHPSDSYTNYNQKFKDKATLTVDKSSSTAYMQFSSPTSEDSAVYYCTREDYYYGSNYDAMDYWGQGTSVTVSS
VL: DIVMTQSHKFMSTSVGDRVNITCKASQDVGSSVAWYQQKPGQSPKLLIYWASTRHAGVPDRFTGSGSGADFTLTISNVQSEDLADYFCQQYSTYPLTFGAGTKLELK
notes: as for B1
Kd (Human CD19-his protein): 1.9 nM | koff (Human CD19-his protein): 0.000388 s⁻¹ | kon (Human CD19-his protein): 205000 M⁻¹ s⁻¹ | binding result [1]: no binding (tested: 100 nM)
